{
  "source": "a protein production outcome set (Wang et al. 2014)",
  "assay": "label from the status in PepcDB records",
  "data": [
    {"sequence": "MSKQIPVQDVTPPAKGDTNNNDLYAKREKIYTRAFTGIFRRLRMVGGAALFLLYFGTVWLNWSGRQAVWWDLPERKFYIFGATFWPQDFMLLSWLLIVCAFGLFFITVFAGRVWCGYTCPQSVWTWIYMWCEKVTEGDRNQRIKLDKAPMSGNKLLRKTAKHSLWLLIGLVTGLTFVGYFSPIRELIPELLTGQADGWAYFWVGFFTLATYGNAGWLREQVCIYMCPYARFQSVMFDKDTLIVSYDPRRGEKRGPRKKSLDYKAQGLGDCIDCTMCVQVCPTGIDIRDGLQIECIGCAACIDACDSIMEKMNYPKGLISYTTEHNLNGQKTHLARPRLIGYAIALVLMISALITAVVLRPLVGFDVSKDRVLYRENELGRIENVYSLKIMNKDQQDHTYILGAKGLEGLTLEGRRELKVAAGDILNLPMELSIEPEKLPSTTNEIVFTIESADDPSIHKEAKSRFIGPRTR", "values": [
      {"measurement": "protein production", "value": "failed"}
    ]},
    {"sequence": "MEKQEEEDVKRRQRQKAATSLGFLHWEELKNHGDLSKVALNIALTTLVDDASTGFCIMNLVNLIVLRESSQGYLLTYEGKLASLASATYVKAFISLWVLEDAERHAWSFRTFSLTFPLDDPILDTFLELTGVTEAGEFVYAPTTLQSPFHALYFDPQRNSFRRVIYEGLADDEFRRRNRLGYERHHILPNHIESLISL", "values": [
      {"measurement": "protein production", "value": "failed"}
    ]},
    {"sequence": "MKDLFSTDSQRYQQARPTYPPSLLQSLLQYIPERELAWDCGAGSGQLTHMLASYFDQVVGTDISQTQLSHAEYYDNISYQLQPAENTTFPDHCFDLITVAQAIHWFDFEAFYAEVRRTIKPSGILAVVGYGLIHVDDLEINAKVQHLYHQTLNGFWDAERHYVDELYQTIPFPFDEIEMPAFQIEAQWTLQQLLQYLNTWSAVQHYILEKNLDPVQQLLSKGRDLQDQVSIQFPVLLRVGRCS", "values": [
      {"measurement": "protein production", "value": "failed"}
    ]},
    {"sequence": "TISQRPYRDRVIHLLALKAYKKPELLARLQKDGVNQKDKNSLGAILQQVANLNSKDLSYTLKDYVFKELQRDWPGYSEIDRRSLESVLSRKLN", "values": [
      {"measurement": "protein production", "value": "not failed"}
    ]},
    {"sequence": "MFPSFITHIQSPNSHHHYSSPSFPFSSDFLESFDESFLINQFLLQQQDVAANVVESPWKFCKKLELKKKNEKCVDGSTSQEVQWRRTVKKRDRHSKICTAQGPRDRRMRLSLQIARKFFDLQDMLGFDKASKTIEWLFSKSKTSIKQLKERVAASEGGGKDEHLQVDEKEKDETLKLRVSKRRTKTMESSFKTKESRERARKRARERTMAKMKMRLFETSETISDPHQETREIKITNGVQLLEKENKEQEWSNTNDVHMVEYQMDSVSIIEKFLGLTSDSSSSSIFGDSEECYTSLSSVRGTISAAGNSNVLTKNPN", "values": [
      {"measurement": "protein production", "value": "failed"}
    ]},
    {"sequence": "MFSILLPTWNNLALLKLCVQSIRAHSAHDHQIIVHVNDGSDGTLAWVREQGLDHTHSPGNVGICLAVNESAMLARHDYIVYLNDDMVCCPGWDTALLRRLDTLDTDLFMLSGTMIEPVDTGNPCVVVGNYGRDADTFDAARLLADVPRLARGDWLGATWPPTLVHRRWWFKLGGYSSELTPGMSSDNDFSMKLWHAGCRIFLGAGDSLVYHFQCKSTGKVKKNDGRRQFLNKWGLSQSTFDKYFLRRGTPAGADWRLPEPELTSALRWDLRRNDLTRRLRPGVPVLLEHHHHHH", "values": [
      {"measurement": "protein production", "value": "not failed"}
    ]},
    {"sequence": "MTSSSQRLALLEAVVEQSFNAVLITDANLANGGPLIVYVNPAFCTMTGYTAEELIGLSPRILQGADTDPQVIERLRQCLSERLFFEGSTVNYRADGSPYVVEWKITPVRDDAGQVCNFVSVQQNISPRIRAEREQHLLAQALNAAFDPIIITDRNSTIVFANEAFQLITGYSAPEIIGQNPRMLRSGKHDALFYAQFNESLASGEPFRTTFINKRKDGSLFYAEHSISPLRNVEGAMTHYVSISQDVTTRLGREQKLLEIAHSDTLTGLDNRRAAEHTLERLINTARMAGKPFSFIICDIDHFKSVNDRYGHPAGDSVLKSVAAILKHRIRAFDVAARWGGEEFLILVPDSSLKQAAELAERVRKGVESLEIPEAGPVTISLGVAELSPGETAASLIQRADKVLYQAKRLGRNRVEIAQADDPAY", "values": [
      {"measurement": "protein production", "value": "failed"}
    ]},
    {"sequence": "MLTYFHPDQSLHHPRTYFSRGRMRMPQEVPERAARLVAAAFAMGFPVREPDDFGIAPIAAVHDTHYLRFLETVHREWKAMPEDWGDEAMSNIFVREPNALRGVLAQAARHLADGSCPVGEHTWRAAYWSAQSALAAAAAVRDGAPAAYALCRPPGHHARVDAAGGFCYLNNAAIAAQALRARHARVAVLDTDMHHGQGIQEIFYARRDVLYVSIHGDPTNFYPAVAGFDDERGAGEGLGYNVNLPMPHGSSEAAFFERVDDALRELRRFAPDALVLSLGFDVYRDDPQSQVAVTTDGFGRLGHLIGALRLPTVIVQEGGYHIESLEANARSFFGGFGALRG", "values": [
      {"measurement": "protein production", "value": "not failed"}
    ]}
  ]
}
